Reference: US11833164B2, “Methods of treating Fabry disease in patients having a mutation in the GLA gene” (Amicus Therapeutics, Inc., priority 2019, dated 2023)
Residue numbers refer to the chain shown, from its start. Names and notes keep the numbering of the source.

B1: A350T (protein)
chain: MQLRNPELHLGCALALRFLALVSWDIPGARALDNGLARTPTMGWLHWERFMCNLDCQEEPDSCISEKLFMEMAELMVSEGWKDAGYEYLCIDDCWMAPQRDSEGRLQADPQRFPHGIRQLANYVHSKGLKLGIYADVGNKTCAGFPGSFGYYDIDAQTFADWGVDLLKFDGCYCDSLENLADGYKHMSLALNRTGRSIVYSCEWPLYMWPFQKPNYTEIRQYCNHWRNFADIDDSWKSIKSILDWTSFNQERIVDVAGPGGWNDPDMLVIGNFGLSWNQQVTQMALWAIMAAPLFMSNDLRHISPQAKALLQDKDVIAINQDPLGKQGYQLRQGDNFEVWERPLSGLAWTVAMINRQEIGGPRSYTIAVASLGKGVACNPACFITQLLPVKRKLGFYEWTSRLRSHINPTGTVLLQLENTMQMSLKDLL
B2: V351E (protein)
chain: B1 chain with T350A, V351E
B3: N355S (protein)
chain: B1 chain with T350A, N355S
B4: M353K (protein)
chain: B1 chain with T350A, M353K
B5: A350V (protein)
chain: B1 chain with T350V
B6: M353T (protein)
chain: B1 chain with T350A, M353T
B7: I359V (protein)
chain: B1 chain with T350A, I359V
B8: I359S (protein)
chain: B1 chain with T350A, I359S
B9: N355H (protein)
chain: B1 chain with T350A, N355H
B10: R356L (protein)
chain: B1 chain with T350A, R356L
B11: I359N (protein)
chain: B1 chain with T350A, I359N
B12: V351A (protein)
chain: B1 chain with T350A, V351A
B13: N355D (protein)
chain: B1 chain with T350A, N355D
B14: A352S (protein)
chain: B1 chain with T350A, A352S
B15: A352T (protein)
chain: B1 chain with T350A, A352T
B16: N355Y (protein)
chain: B1 chain with T350A, N355Y
B17: I359L (protein)
chain: B1 chain with T350A, I359L
B18: I354R (protein)
chain: B1 chain with T350A, I354R
B19: I359F (protein)
chain: B1 chain with T350A, I359F
B20: Q357E (protein)
chain: B1 chain with T350A, Q357E
B21: M353L (protein)
chain: B1 chain with T350A, M353L

Test system: mutant form of α-Gal A expressed in HEK-293 cells
Test: HEK assay (GLP HEK / Migalastat Amenability Assay): α-Gal A activity in lysates of transiently transfected HEK-293 cells incubated with or without 10 μM migalastat
Format: cell-based, human
Details: 10 μM migalastat versus baseline
How it was run: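 HEK-293 cells transiently transfected with mutant α-Gal A and incubated with or without 10 μM migalastat; lysate activity given as nmol free 4-MU released per mg protein per hour. Values are mean±SEM.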

Going from B1 to B2, the “Absolute increase (% WT)” value falls from 14.4 % WT to 7.2 % WT.

First: B3
Second: B4
The “Absolute increase (% WT)” value of the first is higher: 30.8 % WT for the first, 13.0 % WT for the second.

Compared with B5, B6 is lower in “Absolute increase (% WT)” value: 22.3 % WT for the first, 19.2 % WT for the second.

Compared with B7, B8 is lower in “Absolute increase (% WT)” value: 31.6 % WT for the first, 29.6 % WT for the second.

Going from B9 to B10, the “Absolute increase (% WT)” value rises from 9.9 % WT to 43.7 % WT.

Going from B11 to B12, the “Absolute increase (% WT)” value rises from 12.5 % WT to 14.2 % WT.

First: B13
Second: B14
The “Absolute increase (% WT)” value of the first is higher: 16.7 % WT for the first, 12.1 % WT for the second.

Going from B15 to B16, the “Absolute increase (% WT)” value falls from 31.0 % WT to 26.6 % WT.

Compared with B17, B18 is higher in “Absolute increase (% WT)” value: 25.6 % WT for the first, 27.8 % WT for the second.

Going from B19 to B20, the “Absolute increase (% WT)” value rises from 14.1 % WT to 41.5 % WT.

B21 was tested, and the “Absolute increase (% WT)” value was 14.6 % WT.

First: B1
Second: B2
The Relative increase of the first is lower: 1.3 for the first, 1.7 for the second.

Going from B3 to B4, the Relative increase falls from 2.2 to 1.4.

Compared with B5, B6 is lower in Relative increase: 1.8 for the first, 1.4 for the second.

Compared with B7, B8 is lower in Relative increase: 1.6 for the first, 1.3 for the second.

Going from B9 to B10, the Relative increase falls from 3.5 to 2.8.

First: B11
Second: B12
The Relative increase of the first is higher: 1.6 for the first, 1.3 for the second.

First: B13
Second: B14
The Relative increase of the first is higher: 3.3 for the first, 1.2 for the second.

First: B15
Second: B16
The Relative increase of the first is lower: 1.9 for the first, 2.8 for the second.

Going from B17 to B18, the Relative increase rises from 1.7 to 2.4.

First: B19
Second: B20
The Relative increase of the first is higher: 2.1 for the first, 1.9 for the second.

B21 gave a Relative increase of 1.2.

Same assay, conditions: absence of migalastat; percentage of baseline wild-type α-Gal A activity; mean ± SEM

Going from B1 to B2, the “Baseline α-Gal A activity (% WT)” value falls from 47.4 ± 3.7 % WT to 10.5 ± 0.5 % WT.

First: B3
Second: B4
The “Baseline α-Gal A activity (% WT)” value of the first is lower: 25.9 ± 1.6 % WT for the first, 30.3 ± 1.8 % WT for the second.

First: B5
Second: B6
The “Baseline α-Gal A activity (% WT)” value of the first is lower: 27.9 ± 0.9 % WT for the first, 46.4 ± 2.8 % WT for the second.

Going from B7 to B8, the “Baseline α-Gal A activity (% WT)” value rises from 51.5 ± 3.4 % WT to 101.6 ± 6.3 % WT.

Compared with B9, B10 is higher in “Baseline α-Gal A activity (% WT)” value: 4 ± 0.2 % WT for the first, 24.4 ± 1 % WT for the second.

First: B11
Second: B12
The “Baseline α-Gal A activity (% WT)” value of the first is lower: 20.8 ± 1.2 % WT for the first, 56.9 ± 4.7 % WT for the second.

Compared with B13, B14 is higher in “Baseline α-Gal A activity (% WT)” value: 7.3 ± 0.4 % WT for the first, 52.8 ± 3.7 % WT for the second.

First: B15
Second: B16
The “Baseline α-Gal A activity (% WT)” value of the first is higher: 37.2 ± 2.1 % WT for the first, 15.2 ± 1 % WT for the second.

Going from B17 to B18, the “Baseline α-Gal A activity (% WT)” value falls from 39.1 ± 1.8 % WT to 20.1 ± 1.2 % WT.

Going from B19 to B20, the “Baseline α-Gal A activity (% WT)” value rises from 13 ± 1 % WT to 42.8 ± 2.1 % WT.

With B21 the “Baseline α-Gal A activity (% WT)” value was 66.6 ± 2.7 % WT.

Same assay, conditions: lysates of HEK-293 cells transiently transfected with the mutant form, incubated 5 days in absence of migalastat; mean ± SEM

Going from B1 to B2, the “Baseline α-Gal A activity” value falls from 20227 ± 1499 nmol/mg/h to 4760 ± 281 nmol/mg/h.

First: B3
Second: B4
The “Baseline α-Gal A activity” value of the first is lower: 11397 ± 817 nmol/mg/h for the first, 13638 ± 804 nmol/mg/h for the second.

First: B5
Second: B6
The “Baseline α-Gal A activity” value of the first is lower: 12786 ± 654 nmol/mg/h for the first, 15631 ± 1026 nmol/mg/h for the second.

Compared with B7, B8 is higher in “Baseline α-Gal A activity” value: 20990 ± 1174 nmol/mg/h for the first, 37737 ± 2594 nmol/mg/h for the second.

First: B9
Second: B10
The “Baseline α-Gal A activity” value of the first is lower: 1822 ± 81 nmol/mg/h for the first, 10680 ± 518 nmol/mg/h for the second.

Compared with B11, B12 is higher in “Baseline α-Gal A activity” value: 10862 ± 655 nmol/mg/h for the first, 24009 ± 1662 nmol/mg/h for the second.

First: B13
Second: B14
The “Baseline α-Gal A activity” value of the first is lower: 3366 ± 241 nmol/mg/h for the first, 23476 ± 1901 nmol/mg/h for the second.

First: B15
Second: B16
The “Baseline α-Gal A activity” value of the first is higher: 15803 ± 777 nmol/mg/h for the first, 5994 ± 461 nmol/mg/h for the second.

Compared with B17, B18 is lower in “Baseline α-Gal A activity” value: 16254 ± 909 nmol/mg/h for the first, 9157 ± 633 nmol/mg/h for the second.

Compared with B19, B20 is higher in “Baseline α-Gal A activity” value: 6138 ± 568 nmol/mg/h for the first, 15264 ± 877 nmol/mg/h for the second.

B21 was tested, and the “Baseline α-Gal A activity” value was 30347 ± 1572 nmol/mg/h.

Same assay, conditions: lysates of HEK-293 cells transiently transfected with the mutant form, incubated 5 days with 10 μM migalastat; mean ± SEM

Going from B1 to B2, the “10 μM migalastat α-Gal A activity” value falls from 26484 ± 1189 nmol/mg/h to 7910 ± 348 nmol/mg/h.

First: B3
Second: B4
The “10 μM migalastat α-Gal A activity” value of the first is higher: 24820 ± 1396 nmol/mg/h for the first, 19335 ± 946 nmol/mg/h for the second.

B5 and B6 are within error of each other in “10 μM migalastat α-Gal A activity” value: 22855 ± 1012 nmol/mg/h for the first, 21953 ± 937 nmol/mg/h for the second.

Going from B7 to B8, the “10 μM migalastat α-Gal A activity” value rises from 34265 ± 1528 nmol/mg/h to 48055 ± 2727 nmol/mg/h.

Going from B9 to B10, the “10 μM migalastat α-Gal A activity” value rises from 6399 ± 338 nmol/mg/h to 29548 ± 2017 nmol/mg/h.

Going from B11 to B12, the “10 μM migalastat α-Gal A activity” value rises from 17332 ± 879 nmol/mg/h to 30218 ± 1531 nmol/mg/h.

Going from B13 to B14, the “10 μM migalastat α-Gal A activity” value rises from 11004 ± 832 nmol/mg/h to 28397 ± 1310 nmol/mg/h.

Compared with B15, B16 is lower in “10 μM migalastat α-Gal A activity” value: 29351 ± 1532 nmol/mg/h for the first, 16930 ± 1745 nmol/mg/h for the second.

First: B17
Second: B18
The “10 μM migalastat α-Gal A activity” value of the first is higher: 26791 ± 1713 nmol/mg/h for the first, 21854 ± 1398 nmol/mg/h for the second.

Compared with B19, B20 is higher in “10 μM migalastat α-Gal A activity” value: 13144 ± 1091 nmol/mg/h for the first, 28922 ± 1194 nmol/mg/h for the second.

In the case of B21, the “10 μM migalastat α-Gal A activity” value is reported as 36987 ± 1768 nmol/mg/h.

Same assay, conditions: with 10 μM migalastat, 5 days; percentage of baseline wild-type α-Gal A activity; mean ± SEM

First: B1
Second: B2
The “10 μM migalastat α-Gal A activity (% WT)” value of the first is higher: 61.7 ± 2.7 % WT for the first, 17.7 ± 1 % WT for the second.

Going from B3 to B4, the “10 μM migalastat α-Gal A activity (% WT)” value falls from 56.7 ± 2.8 % WT to 43.4 ± 2.6 % WT.

Going from B5 to B6, the “10 μM migalastat α-Gal A activity (% WT)” value rises from 50.2 ± 1.6 % WT to 65.6 ± 3 % WT.

Going from B7 to B8, the “10 μM migalastat α-Gal A activity (% WT)” value rises from 83.1 ± 3.3 % WT to 131.2 ± 8.4 % WT.

Going from B9 to B10, the “10 μM migalastat α-Gal A activity (% WT)” value rises from 13.9 ± 0.6 % WT to 68.1 ± 4.6 % WT.

First: B11
Second: B12
The “10 μM migalastat α-Gal A activity (% WT)” value of the first is lower: 33.3 ± 1.8 % WT for the first, 71.1 ± 4.1 % WT for the second.

Compared with B13, B14 is higher in “10 μM migalastat α-Gal A activity (% WT)” value: 24 ± 1.6 % WT for the first, 64.9 ± 2.5 % WT for the second.

Compared with B15, B16 is lower in “10 μM migalastat α-Gal A activity (% WT)” value: 68.2 ± 3.2 % WT for the first, 41.8 ± 3.3 % WT for the second.

Compared with B17, B18 is lower in “10 μM migalastat α-Gal A activity (% WT)” value: 64.7 ± 3.9 % WT for the first, 47.9 ± 2.6 % WT for the second.

First: B19
Second: B20
The “10 μM migalastat α-Gal A activity (% WT)” value of the first is lower: 27 ± 1.6 % WT for the first, 84.3 ± 6.3 % WT for the second.

In the case of B21, the “10 μM migalastat α-Gal A activity (% WT)” value is reported as 81.2 ± 2.7 % WT.
